Test results as given in patent publication US20110262445A1 (CEPHALON AUSTRALIA, published 2011).

T1: human IL-23 (human, UniProt P29460 23-328; Q9NPF7 20-189)
T1 construct: Recombinant (Ebioscience); HIS-tagged in flow cytometry, biotinylated in some assays; also called hIL-23; rhIL-23
T1 sequence 1: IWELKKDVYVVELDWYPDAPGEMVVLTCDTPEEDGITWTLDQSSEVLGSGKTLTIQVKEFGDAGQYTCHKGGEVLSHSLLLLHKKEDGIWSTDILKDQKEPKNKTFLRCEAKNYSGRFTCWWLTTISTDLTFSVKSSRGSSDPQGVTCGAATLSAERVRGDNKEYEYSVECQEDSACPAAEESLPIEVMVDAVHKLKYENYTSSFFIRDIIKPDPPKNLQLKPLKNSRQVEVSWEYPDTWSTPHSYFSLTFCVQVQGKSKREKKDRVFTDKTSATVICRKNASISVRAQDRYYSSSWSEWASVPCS
T1 sequence 2: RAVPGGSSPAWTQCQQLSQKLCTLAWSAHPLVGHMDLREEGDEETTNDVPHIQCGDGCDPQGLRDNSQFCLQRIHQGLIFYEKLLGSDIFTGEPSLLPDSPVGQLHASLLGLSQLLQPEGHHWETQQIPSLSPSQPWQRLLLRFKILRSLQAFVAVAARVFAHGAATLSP

T2: human IL-12 (human, UniProt P29460 23-328; P29459 23-219)
T2 construct: Recombinant (Peprotech); FLAG-tagged IL-12 in the flow cytometry assays, biotinylated in the IL-12Rβ2 assay; also called hIL-12
T2 sequence 1: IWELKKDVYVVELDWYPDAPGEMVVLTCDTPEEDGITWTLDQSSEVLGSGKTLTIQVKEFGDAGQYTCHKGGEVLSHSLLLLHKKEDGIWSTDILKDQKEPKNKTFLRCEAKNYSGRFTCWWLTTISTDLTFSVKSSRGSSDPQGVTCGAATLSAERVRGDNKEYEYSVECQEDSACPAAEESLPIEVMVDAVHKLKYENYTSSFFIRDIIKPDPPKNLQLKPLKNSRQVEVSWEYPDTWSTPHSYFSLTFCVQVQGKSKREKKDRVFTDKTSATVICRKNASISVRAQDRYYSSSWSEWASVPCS
T2 sequence 2: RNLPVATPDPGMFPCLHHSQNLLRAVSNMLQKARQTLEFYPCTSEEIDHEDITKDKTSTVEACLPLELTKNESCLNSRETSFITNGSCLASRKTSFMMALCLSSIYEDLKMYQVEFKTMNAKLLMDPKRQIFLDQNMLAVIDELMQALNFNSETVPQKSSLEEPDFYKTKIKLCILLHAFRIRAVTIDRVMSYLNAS


Columns and labels:
human IL-23 [1] = target: T1, human IL-23; assay: SPR, single 81 nM analyte, scFv via FLAG; LOD about 1 × 10^-5 s^-1
human IL-23 [2] = target: T1, human IL-23; assay: SPR, single 81 nM analyte, scFv via FLAG
human IL-12 [3] = target: T2, human IL-12; assay: SPR, IgG on Protein A
Method: (§1) Using a SPR 3000, Protein A was immobilized onto FC1 and FC2 (or alternatively FC3 and FC4) of a CM5 research grade sensor chip using amine coupling, giving approximately […] RU. FC1 was used a blank throughout the experiments. The experiments were run in HBS-P buffer (SPR). At a flow rate of 20 μl/min, 20 μl of 5 μg/mL of antibody was passed over FC2. IL-12, IL-23 or IL-12p40 (Peprotech) were passed over the surface of FC1 and FC2 at concentrations ranging from 66 nM to 2 nM. Regeneration of the surface was performed using 10 mM Glycine, pH 1.0. The sensorgram data from FC2 was subtracted from FC1 and a buffer only control. The curves were fitted using a 1:1 Langmuir equation to generate the kd, ka and KD values. All curves were fitted with a χ² of less then 2.0 where possible.

human IL-23 [4] = target: T1, human IL-23; assay: SPR, IgG on Protein A
Method: as §1

human IL-12 [5] = target: T2, human IL-12; assay: ELISA, coated IL-12
Method in brief: (§2)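 Cytokine at 1 μg/mL in carbonate buffer pH 9.6 was coated overnight at 4° C onto Maxisorp plates and blocked with 1% BSA in PBS for 1 hour at 25° C. Antibody titrations were bound for 1 hour at 25° C, then detected with goat anti-human IgG or anti-murine immunoglobulin HRP (1:2000, 1 hour). TMB was developed and stopped with 1M HCl. The binding result is absorbance at 450 nm (reference 620 nm).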

human IL-23 [6] = target: T1, human IL-23; assay: ELISA, coated IL-23
Method in brief: as §2

Row | Binder | koff (human IL-23 [1]) [s⁻¹] | Kd (human IL-23 [2]) [nM] | kon (human IL-23 [2]) [M⁻¹ s⁻¹] | Kd (human IL-12 [3]) [nM] | koff (human IL-12 [3]) [s⁻¹] | kon (human IL-12 [3]) [M⁻¹ s⁻¹] | Kd (human IL-23 [4]) [nM] | koff (human IL-23 [4]) [s⁻¹] | kon (human IL-23 [4]) [M⁻¹ s⁻¹] | binding result (human IL-12 [5]) | binding result (human IL-23 [6])
1 | Antibody 3 (antibody, human IgG1, kappa, V domains shown, Antibody 1 with light chain W94F) VH: EVQLQQSGADLVRSGASIKLSCTASGFNIKDYYMHWVKQRPEQGLEWIGWIDPENGDTEYAPKFQGKATMTADTSSNTAYLQLSSLTSEDTAVYYCNACKELRYFDVWGAGTTVTVSS VL: DIVLTQSPATLSVTPGDSVSLSCRASQSISINLHWYQQKSHESPRLLIKFASQSISGIPSRFSGYGSGTDFTLSINSVETEDFGRYFCQQSNSFPLTFGAGTKLELKR | – | – | – | 0.0438 | 9.39e-05 | 2.15e+06 | 0.0896 | 0.000111 | 1.24e+06 | – | –
2 | Antibody 4 (antibody, human IgG1, kappa, V domains shown, Antibody 1 with heavy chain M34L) VH: EVQLQQSGADLVRSGASIKLSCTASGFNIKDYYLHWVKQRPEQGLEWIGWIDPENGDTEYAPKFQGKATMTADTSSNTAYLQLSSLTSEDTAVYYCNACKELRYFDVWGAGTTVTVSS VL: DIVLTQSPATLSVTPGDSVSLSCRASQSISINLHWYQQKSHESPRLLIKFASQSISGIPSRFSGYGSGTDFTLSINSVETEDFGRYFCQQSNSWPLTFGAGTKLELKR | – | – | – | 0.133 | 0.000204 | 1.54e+06 | 0.127 | 0.000158 | 1.25e+06 | – | –
3 | Antibody 7 (antibody, human IgG1, kappa, V domains shown, Antibody 1 with heavy chain C95N) VH: EVQLQQSGADLVRSGASIKLSCTASGFNIKDYYMHWVKQRPEQGLEWIGWIDPENGDTEYAPKFQGKATMTADTSSNTAYLQLSSLTSEDTAVYYCNANKELRYFDVWGAGTTVTVSS VL: DIVLTQSPATLSVTPGDSVSLSCRASQSISINLHWYQQKSHESPRLLIKFASQSISGIPSRFSGYGSGTDFTLSINSVETEDFGRYFCQQSNSWPLTFGAGTKLELKR | – | – | – | 0.0918 | 0.000167 | 1.82e+06 | 0.0722 | 0.000147 | 2.03e+06 | – | –
4 | Antibody 51 (antibody, human IgG1, kappa, V domains shown) VH: EVQLVQSGAEVKKPGATVKISCKASGYTFSDYYLHWVRQAPGKGLEWMGWIDPENGDTEYAPKFQGRVTITADTSTDTGYLELSSLRSEDTAVYYCAANKELRYFDVWGQGTLVTVSS VL: DIQMTQSPSSVSASVGDRVTITCRASQSISINLHWYQQKPGKAPKLLIYFASQSISGVPSRFSGSGSGTDFSLTINSLQPEDFATYYCQQSNSFPLTFGGGTKVEIKR | – | – | – | – | – | – | – | – | – | binds | binds
5 | Antibody 52 (antibody, human IgG1, kappa, V domains shown) VH: EVQLVQSGAEVKKPGATVKISCKASGYTFSDYYLHWVRQRPGKGLEWMGWIDPENGDTEYAPKFQGRVTITADTSTDTGYLELSSLRSEDTAVYYCAANKELRYFDVWGQGTLVTVSS VL: DIQMTQSPSSVSASVGDRVTITCRASQSISINLHWYQQKPGKAPKLLIYFASQSISGVPSRFSGSGSGTDFSLTINSLQPEDFATYYCQQSNSFPLTFGGGTKVEIKR | – | – | – | – | – | – | – | – | – | binds | binds

Further lines, results first:

Row | koff (human IL-23 [1]) [s⁻¹] | Kd (human IL-23 [2]) [nM] | kon (human IL-23 [2]) [M⁻¹ s⁻¹] | Kd (human IL-12 [3]) [nM] | koff (human IL-12 [3]) [s⁻¹] | kon (human IL-12 [3]) [M⁻¹ s⁻¹] | Kd (human IL-23 [4]) [nM] | koff (human IL-23 [4]) [s⁻¹] | kon (human IL-23 [4]) [M⁻¹ s⁻¹] | binding result (human IL-12 [5]) | binding result (human IL-23 [6]) | Binder
6 | < 1e-05 | ≤ 0.034 | 230000 | – | – | – | – | – | – | – | – | scFv combo. # 2 (scFv, scFv-80 with VH T28A, Y59S; not shown: proprietary C-terminal FLAG tag) scFv: QVQLVQSGAEVKKPGASVKVSCKASGYAFTDYYLHWVRQAPGQGLEWMGWIDPENGDTESAPKFQGRVTMTTDTSTSTAYMELRSLRSDDTAVYYCNANKELRYFDVWGQGTMVTVSSGGGGSGGGGSGGGGSEIVMTQSPATLSVSPGERATLSCRASQSISINLHWYQQKPGQAPRLLIYFASQSISGIPARFSGSGSGTEFTLTISSLQSEDFAVYYCQQSNSFPLTFGGGTKVEIKR
7 | < 1e-05 | ≤ 0.0075 | 200000 | – | – | – | – | – | – | – | – | scFv combo. # 8 (scFv, scFv-80 with VH F29L, Y59S; not shown: proprietary C-terminal FLAG tag) scFv: QVQLVQSGAEVKKPGASVKVSCKASGYTLTDYYLHWVRQAPGQGLEWMGWIDPENGDTESAPKFQGRVTMTTDTSTSTAYMELRSLRSDDTAVYYCNANKELRYFDVWGQGTMVTVSSGGGGSGGGGSGGGGSEIVMTQSPATLSVSPGERATLSCRASQSISINLHWYQQKPGQAPRLLIYFASQSISGIPARFSGSGSGTEFTLTISSLQSEDFAVYYCQQSNSFPLTFGGGTKVEIKR
